Reference: article PMC10397247

How the values were obtained:
4H3185-bH = molecular target: T1, 4H3185-bH; assay: two-hybrid library CCNG1;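 also: natural log of median RNA to DNA barcode read ratio; higher means stronger binding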
T1 chain: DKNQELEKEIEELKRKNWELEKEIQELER

4H331-bH = molecular target: T2, 4H331-bH; assay: two-hybrid library CCNG1;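 also: natural log of median RNA to DNA barcode read ratio; higher means stronger binding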
T2 chain: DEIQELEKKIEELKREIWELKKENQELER

4H3354-bH = molecular target: T3, 4H3354-bH; assay: two-hybrid library CCNG1;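 also: natural log of median RNA to DNA barcode read ratio; higher means stronger binding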
T3 chain: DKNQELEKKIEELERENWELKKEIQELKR

4H338-bH = molecular target: T4, 4H338-bH; assay: two-hybrid library CCNG1;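 also: natural log of median RNA to DNA barcode read ratio; higher means stronger binding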
T4 chain: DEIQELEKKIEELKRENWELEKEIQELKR

4H3427-bH = molecular target: T5, 4H3427-bH; assay: two-hybrid library CCNG1;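 also: natural log of median RNA to DNA barcode read ratio; higher means stronger binding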
T5 chain: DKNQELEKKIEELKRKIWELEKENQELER

4H3782-bH = molecular target: T6, 4H3782-bH; assay: two-hybrid library CCNG1;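 also: natural log of median RNA to DNA barcode read ratio; higher means stronger binding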
T6 chain: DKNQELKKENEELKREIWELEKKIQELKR

4H3855-bH = molecular target: T7, 4H3855-bH; assay: two-hybrid library CCNG1
T7 chain: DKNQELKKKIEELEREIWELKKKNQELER

4H4001-bN = molecular target: T8, 4H4001-bN; assay: two-hybrid library CCNG1
T8 chain: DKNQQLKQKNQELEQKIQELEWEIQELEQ

4H454-bH = molecular target: T9, 4H454-bH; assay: two-hybrid library CCNG1
T9 chain: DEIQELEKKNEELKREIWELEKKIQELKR

4H568-bH = molecular target: T10, 4H568-bH; assay: two-hybrid library CCNG1
T10 chain: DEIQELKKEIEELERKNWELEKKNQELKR

4H607-bH = molecular target: T11, 4H607-bH; assay: two-hybrid library CCNG1
T11 chain: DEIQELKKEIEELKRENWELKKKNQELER

4H687-bH = molecular target: T12, 4H687-bH; assay: two-hybrid library CCNG1
T12 chain: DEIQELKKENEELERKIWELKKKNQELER

4H717-bH = molecular target: T13, 4H717-bH; assay: two-hybrid library CCNG1
T13 chain: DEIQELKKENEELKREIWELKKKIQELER

4H72-bH = molecular target: T14, 4H72-bH; assay: two-hybrid library CCNG1
T14 chain: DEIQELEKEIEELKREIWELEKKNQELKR

4H754-bH = molecular target: T15, 4H754-bH; assay: two-hybrid library CCNG1
T15 chain: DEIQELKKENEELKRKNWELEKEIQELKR

4H797-bH = molecular target: T16, 4H797-bH; assay: two-hybrid library CCNG1
T16 chain: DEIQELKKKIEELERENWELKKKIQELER

4H883-bH = molecular target: T17, 4H883-bH; assay: two-hybrid library CCNG1
T17 chain: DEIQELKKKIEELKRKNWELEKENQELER

4H908-bH = molecular target: T18, 4H908-bH; assay: two-hybrid library CCNG1
T18 chain: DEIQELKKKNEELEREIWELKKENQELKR

4H918-bH = molecular target: T19, 4H918-bH; assay: two-hybrid library CCNG1
T19 chain: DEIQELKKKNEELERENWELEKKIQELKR

4H953-bH = molecular target: T20, 4H953-bH; assay: two-hybrid library CCNG1
T20 chain: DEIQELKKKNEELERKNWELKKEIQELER

4H967-bH = molecular target: T21, 4H967-bH; assay: two-hybrid library CCNG1
T21 chain: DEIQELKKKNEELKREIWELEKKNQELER

O3 = molecular target: T22, O3; assay: two-hybrid library CCNG1
T22 chain: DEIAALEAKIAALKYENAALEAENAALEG

O4 [1] = molecular target: T23, O4; assay: two-hybrid library CCNG1
T23 chain: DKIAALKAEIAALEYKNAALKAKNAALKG

O5 [2] = molecular target: T24, O5; assay: two-hybrid library CCNG1
T24 chain: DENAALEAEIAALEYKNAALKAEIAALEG

O6 [3] = molecular target: T25, O6; assay: two-hybrid library CCNG1
T25 chain: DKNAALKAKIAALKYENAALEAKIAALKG

O7 [4] = molecular target: T26, O7; assay: two-hybrid library CCNG1
T26 chain: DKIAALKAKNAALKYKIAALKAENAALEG

O8 [5] = molecular target: T27, O8; assay: two-hybrid library CCNG1
T27 chain: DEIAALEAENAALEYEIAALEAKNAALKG

O9 [6] = molecular target: T28, O9; assay: two-hybrid library CCNG1
T28 chain: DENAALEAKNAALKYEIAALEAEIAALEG

O4 [7] = molecular target: T29, O4; assay: two-hybrid library CC0; details: mean of both orientations
T29 chain: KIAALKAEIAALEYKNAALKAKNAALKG

O5 [8] = molecular target: T30, O5; assay: two-hybrid library CC0; details: mean of both orientations
T30 chain: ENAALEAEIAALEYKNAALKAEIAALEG

O6 [9] = molecular target: T31, O6; assay: two-hybrid library CC0; details: mean of both orientations
T31 chain: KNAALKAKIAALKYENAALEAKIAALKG

O7 [10] = molecular target: T32, O7; assay: two-hybrid library CC0; details: mean of both orientations
T32 chain: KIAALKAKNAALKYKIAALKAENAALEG

O8 [11] = molecular target: T33, O8; assay: two-hybrid library CC0; details: mean of both orientations
T33 chain: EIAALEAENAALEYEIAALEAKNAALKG

O9 [12] = molecular target: T34, O9; assay: two-hybrid library CC0; details: mean of both orientations
T34 chain: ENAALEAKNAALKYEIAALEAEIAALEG

APC1015-AA = molecular target: T35, APC1015-AA; assay: two-hybrid library CCmax
T35 chain: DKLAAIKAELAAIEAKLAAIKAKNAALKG

APC1434-AA = molecular target: T36, APC1434-AA; assay: two-hybrid library CCmax; details: mean of both orientations
T36 chain: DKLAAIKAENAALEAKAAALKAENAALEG

APC2237-AA = molecular target: T37, APC2237-AA; assay: two-hybrid library CCmax; details: mean of both orientations
T37 chain: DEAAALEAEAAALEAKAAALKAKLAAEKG

APC232-AA = molecular target: T38, APC232-AA; assay: two-hybrid library CCmax; details: mean of both orientations
T38 chain: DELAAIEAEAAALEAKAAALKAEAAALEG

APC2405-AA = molecular target: T39, APC2405-AA; assay: two-hybrid library CCmax; details: mean of both orientations
T39 chain: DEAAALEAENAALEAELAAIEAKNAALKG

APC3645-AA = molecular target: T40, APC3645-AA; assay: two-hybrid library CCmax; details: mean of both orientations
T40 chain: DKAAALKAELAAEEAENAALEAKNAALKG

APC4011-AA = molecular target: T41, APC4011-AA; assay: two-hybrid library CCmax; details: mean of both orientations
T41 chain: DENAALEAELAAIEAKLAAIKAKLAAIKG

APC4264-AA = molecular target: T42, APC4264-AA; assay: two-hybrid library CCmax; details: mean of both orientations
T42 chain: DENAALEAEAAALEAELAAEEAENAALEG

APC4436-AA = molecular target: T43, APC4436-AA; assay: two-hybrid library CCmax; details: mean of both orientations
T43 chain: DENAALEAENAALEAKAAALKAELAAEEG

APC5383-AA = molecular target: T44, APC5383-AA; assay: two-hybrid library CCmax; details: mean of both orientations
T44 chain: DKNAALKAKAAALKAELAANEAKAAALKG

APC6108-AA = molecular target: T45, APC6108-AA; assay: two-hybrid library CCmax; details: mean of both orientations
T45 chain: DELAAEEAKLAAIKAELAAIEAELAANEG

APC7099-AA = molecular target: T46, APC7099-AA; assay: two-hybrid library CCmax; details: mean of both orientations
T46 chain: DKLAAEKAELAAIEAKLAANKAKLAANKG

APC8191-AA = molecular target: T47, APC8191-AA; assay: two-hybrid library CCmax; details: mean of both orientations
T47 chain: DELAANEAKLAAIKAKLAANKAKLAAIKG

APC8910-AA = molecular target: T48, APC8910-AA; assay: two-hybrid library CCmax; details: mean of both orientations
T48 chain: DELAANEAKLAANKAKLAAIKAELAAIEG

APC9096-AA = molecular target: T49, APC9096-AA; assay: two-hybrid library CCmax; details: mean of both orientations
T49 chain: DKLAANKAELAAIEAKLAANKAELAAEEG

APC9319-AA = molecular target: T50, APC9319-AA; assay: two-hybrid library CCmax; details: mean of both orientations
T50 chain: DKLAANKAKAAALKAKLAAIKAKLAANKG

Question: With DKNQELEKEIEELKRKNWELEKEIQELER [4H3185-bH] as the binder, how does the interaction score (4H3185-bH) read?
Answer: The interaction score was 0.0268.

Question: What about the interaction score (4H331-bH) of the same binder?
Answer: The interaction score was -0.701.

Question: And the interaction score (4H3354-bH)?
Answer: The interaction score was -0.583.

Question: And the interaction score (4H338-bH)?
Answer: Its interaction score is -0.56.

Question: And the interaction score (4H3427-bH)?
Answer: The interaction score was -0.801.

Question: What about the interaction score (4H3782-bH) of the same binder?
Answer: The interaction score was -0.522.

Question: And the interaction score (4H3855-bH)?
Answer: The interaction score was -0.899.

Question: What about the interaction score (4H4001-bN) of the same binder?
Answer: The interaction score was 0.

Question: And the interaction score (4H454-bH)?
Answer: Its interaction score is -1.16.

Question: What about the interaction score (4H568-bH) of the same binder?
Answer: Its interaction score is -2.61.

Question: What about the interaction score (4H607-bH) of the same binder?
Answer: Its interaction score is -0.833.

Question: What about the interaction score (4H687-bH) of the same binder?
Answer: Its interaction score is -0.899.

Question: What about the interaction score (4H717-bH) of the same binder?
Answer: The interaction score was -0.724.

Question: What about the interaction score (4H72-bH) of the same binder?
Answer: The interaction score was -1.26.

Question: What about the interaction score (4H754-bH) of the same binder?
Answer: Its interaction score is -1.15.

Question: What about the interaction score (4H797-bH) of the same binder?
Answer: Its interaction score is -1.22.

Question: What about the interaction score (4H883-bH) of the same binder?
Answer: Its interaction score is -0.72.

Question: And the interaction score (4H908-bH)?
Answer: Its interaction score is -0.797.

Question: And the interaction score (4H918-bH)?
Answer: The interaction score was -1.09.

Question: What about the interaction score (4H953-bH) of the same binder?
Answer: The interaction score was -1.21.

Question: And the interaction score (4H967-bH)?
Answer: Its interaction score is -1.56.

Question: DEIAALEAKIAALKYENAALEAENAALEG [O3] was tested. Which interaction score (O3) did it give?
Answer: Its interaction score is -2.29.

Question: And the interaction score (O4 [1])?
Answer: Its interaction score is 2.05.

Question: And the interaction score (O5 [2])?
Answer: Its interaction score is -2.

Question: What about the interaction score (O6 [3]) of the same binder?
Answer: The interaction score was -2.73.

Question: And the interaction score (O7 [4])?
Answer: The interaction score was -2.58.

Question: And the interaction score (O8 [5])?
Answer: The interaction score was -2.29.

Question: And the interaction score (O9 [6])?
Answer: The interaction score was -2.28.

Question: With KIAALKAEIAALEYKNAALKAKNAALKG [O4] as the binder, how does the interaction score (O4 [7]) read?
Answer: The interaction score was -2.65.

Question: And the interaction score (O5 [8])?
Answer: The interaction score was -2.68.

Question: What about the interaction score (O6 [9]) of the same binder?
Answer: The interaction score was -2.42.

Question: What about the interaction score (O7 [10]) of the same binder?
Answer: The interaction score was -2.75.

Question: What about the interaction score (O8 [11]) of the same binder?
Answer: The interaction score was -2.63.

Question: What about the interaction score (O9 [12]) of the same binder?
Answer: Its interaction score is -2.71.

Question: For DKLAAIKAELAAIEAKLAAIKAKNAALKG [APC1015-AA], which interaction score (APC1015-AA) is on record?
Answer: The interaction score was -0.544.

Question: What about the interaction score (APC1434-AA) of the same binder?
Answer: The interaction score was -1.58.

Question: And the interaction score (APC2237-AA)?
Answer: Its interaction score is -0.0287.

Question: What about the interaction score (APC232-AA) of the same binder?
Answer: The interaction score was 0.0398.

Question: What about the interaction score (APC2405-AA) of the same binder?
Answer: The interaction score was -1.26.

Question: And the interaction score (APC3645-AA)?
Answer: The interaction score was -1.79.

Question: What about the interaction score (APC4011-AA) of the same binder?
Answer: The interaction score was 1.66.

Question: What about the interaction score (APC4264-AA) of the same binder?
Answer: Its interaction score is -1.82.

Question: And the interaction score (APC4436-AA)?
Answer: Its interaction score is -1.14.

Question: And the interaction score (APC5383-AA)?
Answer: Its interaction score is -1.69.

Question: What about the interaction score (APC6108-AA) of the same binder?
Answer: Its interaction score is 0.792.

Question: What about the interaction score (APC7099-AA) of the same binder?
Answer: The interaction score was -2.02.

Question: What about the interaction score (APC8191-AA) of the same binder?
Answer: The interaction score was -1.8.

Question: And the interaction score (APC8910-AA)?
Answer: Its interaction score is -1.34.

Question: And the interaction score (APC9096-AA)?
Answer: The interaction score was -1.67.

Question: What about the interaction score (APC9319-AA) of the same binder?
Answer: Its interaction score is -1.82.
